The data set concerns the molecule itself. Nature of the data set: native gel or EMSA; nondenaturing gradient gel (4–30%) of plasma samples (5 µL/lane), bands stained for BChE activity with BTC as the substrate.

Values joined by “and” are separate entries in the source; they are usually repeats but may differ in a detail not shown here. Equal entries are not always repeated.

B1: Butyrylcholinesterase (usual, wild-type) of human plasma (enzyme, human (endogenous in plasma), UniProt P06276 29-602, looked up)
chain: EDDIIIATKNGKVRGMNLTVFGGTVTAFLGIPYAQPPLGRLRFKKPQSLTKWSDIWNATKYANSCCQNIDQSFPGFHGSEMWNPNTDLSEDCLYLNVWIPAPKPKNATVLIWIYGGGFQTGTSSLHVYDGKFLARVERVIVVSMNYRVGALGFLALPGNPEAPGNMGLFDQQLALQWVQKNIAAFGGNPKSVTLFGESAGAASVSLHLLSPGSHSLFTRAILQSGSFNAPWAVTSLYEARNRTLNLAKLTGCSRENETEIIKCLRNKDPQEILLNEAFVVPYGTPLSVNFGPTVDGDFLTDMPDILLELGQFKKTQILVGVNKDEGTAFLVYGAPGFSKDNNSIITRKEFQEGLKIFFPGVSEFGKESILFHYTDWVDDQRPENYREALGDVVGDYNFICPALEFTKKFSEWGNNAFFYYFEHRSSKLPWPEWMGVMHGYEIEFVFGLPLERRDNYTKAEEILSRSIVKRWANFAKYGNPNETQNNSTSWPVFKSTEQKYLTLNTESTRIMTKLRAQQCRFWTSFFPKVLEMTGNIDEAEWEWKAGFHRWNNYMMDWKNQFNDYTSKKESCVGL
notes: Butyrylcholinesterase, human, Swissprot P06276, as it circulates in plasma; Subunit of the plasma enzyme; Plasma of the heterozygous family members also holds variant subunits (p.Val204Asp; p.Asp70Gly-p.Ala539Thr); also called BChE; pseudocholinesterase; source: endogenous, human plasma (genotype UU control and family members' plasma)
As to B1, the “stoichiometry N” value was 4 and 2.
